Test results as given in patent US20220090012A1 (CRISPR THERAPEUTICS, published 2022).

Target: T1, recombinant biotinylated human BCMA (human, UniProt Q02223 1-54, biotinylated (site not stated); detected with streptavidin-APC)
T1 construct: Staining reagent; also called recombinant biotinylated BCMA/streptavidin-APC conjugate
T1 sequence (looked up): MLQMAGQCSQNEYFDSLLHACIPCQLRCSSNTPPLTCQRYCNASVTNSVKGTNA
Assay: flow cytometry; edited T cells carrying the CAR stained with recombinant biotinylated human BCMA and streptavidin-APC
From the text: Flowcytometry was used to verify the editing for TRAC, β2M and the insertion and expression of anti-BCMA CAR. Briefly, about one week post electroporation, cells were stained with anti-human TCR, anti-human β2M and recombinant biotinylated human BCMA/streptavidin-APC to assess the levels of editing for TRAC and β2M, and insertion of the nucleotide sequence encoding anti-BCMA CAR.
TRAC−/β2M−, TRAC−/β2M−/Reg-1−, TRAC−/β2M−/TGFBRII− and TRAC−/β2M−/Reg-1−/TGFBRII− anti-BCMA CAR+ T-cells show consistent rates of TCR and β2M disruptions at >90% and >60% rates, respectively as determined by flow cytometry (FIGS. 23A and 23B). Anti-BCMA CAR expression was measured flow cytometrically by determining the percentage of cells that bound recombinant biotinylated BCMA/streptavidin-APC conjugate. All the conditions including TRAC−/β2M−, TRAC−/β2M−/Reg-1−, TRAC−/β2M−/TGFBRII− and TRAC−/β2M−/Reg-1−/TGFBRII− anti-BCMA CAR+ T-cells show consistent rates of CAR insertion (>70%), while the unedited RNP− T-cells have no detectable staining for anti-BCMA CAR (FIG. 23C).

binding result: binds
B1: anti-BCMA CAR (BCMA CAR amino acid sequence) (other)
chain: QVQLVQSGAELKKPGASVKVSCKASGNTLTNYVIHWVRQAPGQRLEWMGYILPYNDLTKYSQKFQGRVTITRDKSASTAYMELSSLRSEDTAVYYCTRWDWDGFFDPWGQGTTVTVSSGGGGSGGGGSGGGGSEIVMTQSPATLSVSPGERASISCRASQSLVHSNGNTHLHWYQQRPGQAPRLLIYSVSNRFSEVPARFSGSGSGTDFTLTISSVESEDFAVYYCSQTSHIPYTFGGGTKLEIKSAAAFVPVFLPAKPTTTPAPRPPTPAPTIASQPLSLRPEACRPAAGGAVHTRGLDFACDIYIWAPLAGTCGVLLLSLVITLYCNHRNRKRGRKKLLYIFKQPFMRPVQTTQEEDGCSCRFPEEEEGGCELRVKFSRSADAPAYQQGQNQLYNELNLGRREEYDVLDKRRGRDPEMGGKPRRKNPQEGLYNELQKDKMAEAYSEIGMKGERRRGKGHDGLYQGLSTATKDTYDALHMQALPPR
notes: also called anti-BCMA chimeric antigen receptor
